The source of these data is the RNAGym collection of RNA variant scans (doi:10.1073/pnas.2313332121).

Variants at the floor of the assay were thinned out.

First the molecules themselves.
B1: TPR 5TU (parent)
chain: GGAUCUUCUCGAUCUAACAAAAAAGACAAAUCUGCCACAAAGCUUGAGAGCAUCUUCGGAUGCAGAGGCGGCAGCCUUCGGUGGCGCGAUAGCGCCAACGUUCUCAACUAUGACACGCAAAACGCGUGCUCCGUUGAAUGGAGUUUAUCAUG

The variants in this data set derive from B1. The experiment in a line: polymerase ribozyme fitness, log enrichment relative to wild type (log ratio); higher = more active; in vitro selection for triplet polymerase activity. An outline of the steps: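 Mutant libraries of both subunits of a heterodimeric triplet polymerase ribozyme were PCR-built, transcribed, and selected once in triplicate, with frozen incubation at −7 °C and capture of gel-excised extended constructs on streptavidin beads before RT-PCR. Illumina sequencing of input and output libraries was filtered to genotypes with ≥10 input reads and ≥1 read per output. Fitness is the logarithm of genotype enrichment over wild-type enrichment, using inverse-variance-weighted replicate averages. The logarithm is base 2.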
For the variant GGAUCUUCUCGAUCUAACAAAAAAGACAAAGCUGCCACGAAGCUUGAGAGCAUCUUCGGAUGCAGAGGCGGCAGCCUUCGGUGGUGCGAUAGCCCCAACGUUCUCAACUAUGACACGCAAAACGCGUGCUCCGUUGAAUGGAGUUUAUCAUG, the “polymerase ribozyme fitness (log ratio)” value was -3.27. For GGAUCUUCUCGAUCUAACAAAAAAGACAAAGCUGCCACAAAGCUUGAGAGCAUCUUCGGAUGCAGAGGCGGCAGCCUUCGGUGGCGCGAUAGCGCCAACGUUCUCAACUAUGUCACGCAAAACGCGUGCUCCGGUGAAUGGAGUUUAUCAUG the value was -3.56. The result for GGAUCUUCUCGAUCUAACAAAAAAGACAAACCUGCCACAAAGCUUGAGAGCAUCUUCGGAUGCAGAGGCGGCAGCCUUCGGUGGCGCGCUAGUGCCAACGUUCUCAACUAUGACACGCAAAACGCGUGCUCCGUAGAAUGGAGUUUAUCAUG reads -2.87; that for GGAUCUUCUCGAUCUAACAAAAAAGACAAAGCUGCCACAAAGCUUGAGAGCAUGUUCGGGUGCAGAGGCGGCAGCCUUCGGUGGAGCGAUAGCGCCAAAGUUCUCAACUAUGACACGCAAAACGCGUGCUCCGUUGAAUGGAGUUUAUCAUG, at most -4.2. Regarding GGAUCUUCUCGAUCUAACAAAAAAGACAAACCUGCCACAAAGCUUGAGCGCAUCUUCGGAUGCAGAGGCGGCAGCCUUCGGUGGCGCGAUAGGGCCAACGUUCUCAACUAUGACACGCAAAACGCGUGCUCCGUGGAAUGGAAUUUAUCAUG, the “polymerase ribozyme fitness (log ratio)” value was at most -4.2.

With GGAUCUUCUCGAUCUAACAAAAAAGACAAAGCUGCUACAAAGCUUGAGAGCAACUUCCGAUGCAGAGGUGGCAGCCUUCGGUUGCGCGAUAGCGCCAACGUUCUCAACUAUGACACGAAAAACGCGUGCUCCGAUGAAUGGACUUUAUCAUU, the “polymerase ribozyme fitness (log ratio)” value is at most -4.2. As for GGAUCUUCUCGAUCUAACAAAAAAGACAAAGCUGCCACAAAGCUUGAGAGCGUCGUCGGAUGCAGAGGCGGCAGCCUUCGGUGGCGCGAUAGCGCCAUCGUUCUCAACUAUGACACGCAAAACGCGUGCUCCGUUGAAUGGAGUUUAUCAUG, the “polymerase ribozyme fitness (log ratio)” value was -0.355. The result for GGAUCUUCUCGAUCUAACAAAAAAGACAAACCUACCACAAAGCUUGAGAGCAUCUGCGGGUGCAGAGGCGGCGGCCUUCGGUGACGCGUUAGCGCCAACGUUCUCAACUAUGACACGCAAAACGCGUGCUCCGUUGAAUGGAGUUUAUCAUG reads at most -4.2. The result for GGAUCUUCUCGAUCUAACAAAAAAGACAAACCUGCCACAAAGCUUGAGAGCAUCUUCCGAUGCAGAGGCGGCAGCCUUCGGUGGCGCGAUAGCGGCGACGUUCUCAACUAUGACACGCAAAACGCGUGCUCCGUUGAAUGGAAUUUAUCAUG reads -2.96; that for GGAUCUUCUCGAUCUAACAAAAAAGACAAAGCUGCCACAAAGCUUGAGCGCGUCUUCGGAUGCAGAGGCGGCAGCCUUCGGUGGCGCGAUAGCGCCCACGUUCUCAACUAUGACACGCAUAACGCGUGCUCCGUCGAAUGGAGUUUAGCAUG, at most -4.2. For GGAUCUUCUCGAUCUAACAAAAAAGACAAAGCUGACACAAAGCUUGCGAGCAUCUUCGGAUGCAGAGGCGGCAUCCUUCGGUGGCGGGAUAGCGCCAACGUUCUCAACUAUGACACGCAAAACGCGUGCUCCGUUGAAUGGCGUUUAUCAUG the value was at most -4.2; for GGAUCUUCUCGAUCUAACAAAAAAGACAAACCUGCCACAAAGCUUGACAGCAUCUUCGGAUGCAGAGGCGGCAGCCUUCGGUGGCGCGAUAGCCCCAACGUUCUCUACUAUGACACGCAAAACGCGUGCUCCGUUGAAUGGAGUUUAUCAUG, at most -4.2. Regarding GGAUCUUCUCGAUCUAACAAAAAAGACAAACCUGCCACAAAGCUUGAGAGCAUCUUCGGAUGCAGAGGCGGCAGCCUUCGGUGGCGCGAUAGCGUCUAUGUUCUCAACUAUGACACGCAAAACGCGUGCUCCUUUGAAUGGAGUUUAUCGUG, the “polymerase ribozyme fitness (log ratio)” value was at most -4.2. The result for GGAUCUUCUCGAUCUAACAAAAAAGACAAACCUGCCACAAAGCUUGAGUGCAUCUUCGGAUGCAGAGGCGGCAACCUUCGGUGUCGCGAUAGCGCCAACGUUCUCAACUAUGACACCCAAAACGCGUGCUCCUUUGAAUGGCGUUUAUCAUG reads at most -4.2; that for GGAUCUUCUCGAUCUAACAAAAAAGACAAAGCUGCCACAGAGCUUGAGAGCAUAUUCGGAUGCAGAGGCGGCAGCCUUCGGUGGCGCGAUAGAGCCAACGUUAUCAACAAUGACACGCAAAACGCGUGCUCCGAUUAAUGGAGUUUAUCAUG, at most -4.2.

For the variant GGAUCUUCUCGAUCUAACAAAAAAGACAAACCUGCCACAAAGCUUGAGAGCAUCUUCGGAUGCAGAGGCGGCAGCCUUCGGUGGCGCGAUAGCCCCAACGUUCUCAACUAUGACACGCAAAACGCGUGCUCCGUUGAAUGGAGUUUAUCAUG, the “polymerase ribozyme fitness (log ratio)” value is 0.811. The result for GGAUCUUCUCGAUCUAACAAAAAAGACAAAGCUGCCCCAAAGCUUGAGAGCAUCUUCGGAUGCAGAGGCGGCAGCCUUCGGUGGCGCGAUAGCGUCAACGUUCUCAACGAUGACACGCAAAACGCGUGCUCCGUUGAAUGGAUUUUAUCAUC reads at most -4.2.

For GGAUCUUCUCGAUCUAACAAAAAAGACAAACCUGCCACAAAGCUUGAGAGAAUCUUCGGAUGCAGAGGCGGCAUCCUUCGGUGACGAGAUAGCGCCAACGUUCUCAACUAUGGCCCGCAAAACGCGUGCUCCGUUGAAUGGAGUUUAUCAUG, the “polymerase ribozyme fitness (log ratio)” value was at most -4.2. The result for GGAUCUUCUCGAUCUAACAAAAAAGACAAACCUGCCACAAAGCUUGAGAGCAUCUUCGGAUGCAGAGGCGGCAGCCUUCGGUGGCGCGAUAGCGCCAACGUUCUCAACUAUGACACGCAAAACGCGUGCUCCGUUGAAUGGAGUUUAACAUG reads -2.56.
